Measurements as given in doi:10.1101/2021.11.17.468963.

Target: human glyceraldehyde 3-phosphate dehydrogenase (GAPDH) (human) (UniProt P04406)
Assay: cryo-EM structure

Sequence of human glyceraldehyde 3-phosphate dehydrogenase (GAPDH), P04406 1-335 (enzyme; other documents disagree on this pair) (P04406 whole entry): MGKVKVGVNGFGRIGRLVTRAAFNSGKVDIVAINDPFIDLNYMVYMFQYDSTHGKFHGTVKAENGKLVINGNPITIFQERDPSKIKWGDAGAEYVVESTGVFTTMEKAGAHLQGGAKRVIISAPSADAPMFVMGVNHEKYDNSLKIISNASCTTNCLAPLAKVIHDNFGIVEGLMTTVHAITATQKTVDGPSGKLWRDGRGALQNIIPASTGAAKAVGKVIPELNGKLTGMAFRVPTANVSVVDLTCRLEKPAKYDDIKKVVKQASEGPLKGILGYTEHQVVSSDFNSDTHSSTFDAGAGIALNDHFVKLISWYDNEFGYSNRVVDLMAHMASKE

stoichiometry N: 4
Substance: human glyceraldehyde 3-phosphate dehydrogenase (GAPDH), P04406 1-335 (enzyme; other documents disagree on this pair)
